Here are results for 1 substance from article PMC4394351.

For this test, the target named is GFP-tagged human PPP1R15A (GFP-hR15A) (human) (UniProt O75807). Briefly: co-IP; as a5, then three washes in GFP-Trap lysis buffer with additional NaCl; 350 mM salt.
UniProt O75807, sequence (O75807 whole entry): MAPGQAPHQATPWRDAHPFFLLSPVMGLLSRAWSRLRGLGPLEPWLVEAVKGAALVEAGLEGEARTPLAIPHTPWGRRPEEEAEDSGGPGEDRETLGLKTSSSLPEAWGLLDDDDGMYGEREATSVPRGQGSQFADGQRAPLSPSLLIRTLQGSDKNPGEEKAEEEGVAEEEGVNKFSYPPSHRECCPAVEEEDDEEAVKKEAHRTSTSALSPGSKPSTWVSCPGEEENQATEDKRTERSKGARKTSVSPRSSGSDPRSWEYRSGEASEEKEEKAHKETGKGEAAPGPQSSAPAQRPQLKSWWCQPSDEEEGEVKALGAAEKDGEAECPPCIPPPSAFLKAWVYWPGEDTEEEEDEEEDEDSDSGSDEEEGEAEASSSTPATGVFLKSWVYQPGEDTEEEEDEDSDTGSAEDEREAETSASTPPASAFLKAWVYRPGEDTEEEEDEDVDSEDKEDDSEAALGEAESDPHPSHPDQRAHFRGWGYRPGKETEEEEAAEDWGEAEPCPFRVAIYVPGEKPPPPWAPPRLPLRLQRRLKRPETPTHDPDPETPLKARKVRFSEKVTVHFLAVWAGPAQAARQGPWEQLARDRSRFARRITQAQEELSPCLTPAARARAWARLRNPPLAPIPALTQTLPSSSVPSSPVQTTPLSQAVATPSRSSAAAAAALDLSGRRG

As for “actin (endogenous, HEK293T cells) (from UniProt P60709 1-375) (natural protein)”, the percent of the actin bound at 150 mM salt that was lost at 350 mM came to 75%.
